Assay results as given in article PMC3879712 (Cell Research, 2013).
Values belong to the molecule of their own block, whether it stands above or below them.

Experiments:
[1] = molecular target: MLKL in membrane fraction (chemically cross-linked) (UniProt Q9D2Y4); assay: cross-linking
[2] = molecular target: ND-HBD*-3×HA (mouse | not stated) (UniProt Q9D2Y4); assay: non-reducing SDS-PAGE with immunoblot
[3] = molecular target: ND-HBD*-GFP-Flag (mouse | not stated) (UniProt Q9D2Y4); assay: SiMPull
[4] = molecular target: the molecule itself; assay: non-reducing SDS-PAGE with immunoblot

Molecule: ND-HBD*-3×HA (from UniProt Q9D2Y4-2 1-190)
stoichiometry N [2]: 4

B1: endogenous MLKL of L929 cells (natural protein, mouse (endogenous in L929), UniProt Q9D2Y4-2 1-464, looked up)
chain: MDKLGQIIKLGQLIYEQCEKMKYCRKQCQRLGNRVHGLLQPLQRLQAQGKKNLPDDITAALGRFDEVLKEANQQIEKFSKKSHIWKFVSVGNDKILFHEVNEKLRDVWEELLLLLQVYHWNTVSDVSQPASWQQEDRQDAEEDGNENMKVILMQLQISVEEINKTLKQCSLKPTQEIPQDLQIKEIPKEHLGPPWTKLKTSKMSTIYRGEYHRSPVTIKVFNNPQAESVGIVRFTFNDEIKTMKKFDSPNILRIFGICIDQTVKPPEFSIVMEYCELGTLRELLDREKDLTMSVRSLLVLRAARGLYRLHHSETLHRNISSSSFLVAGGYQVKLAGFELSKTQNSISRTAKSTKAERSSSTIYVSPERLKNPFCLYDIKAEIYSFGIVLWEIATGKIPFEGCDSKKIRELVAEDKKQEPVGQDCPELLREIINECRAHEPSQRPSVDGILERLSAVEESTDKKV
stoichiometry N [4]: 4

The next lines start with the values.

stoichiometry N [1]: > 4
Molecule: MLKL in membrane fraction (chemically cross-linked) (from UniProt Q9D2Y4 1-472) (natural protein)

stoichiometry N [3]: < 4
Molecule: ND-HBD*-GFP-Flag (from UniProt Q9D2Y4-2 1-190)
